Assay [1] concerns the target cell membrane-expressed cynomolgus LAG-3 (cynomolgus monkey). Nature of the assay: flow cytometry, SEB-activated cynomolgus PBMCs, CD4 T cells, percent of cells bound (isotype control). On the technique in general: Flow cytometry measures light scatter and fluorescence of single cells or particles in a stream.
In assay [2] the target is cell membrane-expressed human LAG-3 (human) (UniProt P18627). The assay is described as follows: flow cytometry, SEB-activated human PBMCs, CD4 T cells, percent of cells bound (isotype control).
Sequence of cell membrane-expressed human LAG-3 (human) (P18627 23-525 limits assumed): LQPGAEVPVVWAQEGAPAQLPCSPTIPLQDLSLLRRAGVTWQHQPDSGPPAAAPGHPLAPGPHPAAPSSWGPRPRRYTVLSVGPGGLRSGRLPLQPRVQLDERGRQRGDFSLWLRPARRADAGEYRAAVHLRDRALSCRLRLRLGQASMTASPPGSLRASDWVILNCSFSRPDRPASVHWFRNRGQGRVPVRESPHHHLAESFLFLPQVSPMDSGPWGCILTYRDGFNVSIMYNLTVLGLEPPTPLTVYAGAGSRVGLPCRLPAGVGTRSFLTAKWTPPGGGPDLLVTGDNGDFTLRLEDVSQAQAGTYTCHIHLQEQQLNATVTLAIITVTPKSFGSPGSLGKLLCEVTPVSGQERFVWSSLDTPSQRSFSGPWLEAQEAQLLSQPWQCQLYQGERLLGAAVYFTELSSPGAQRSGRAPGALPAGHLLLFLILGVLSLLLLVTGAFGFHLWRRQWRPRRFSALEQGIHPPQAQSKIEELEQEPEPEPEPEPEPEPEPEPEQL
Assay [3] concerns the target cell membrane-expressed cynomolgus LAG-3 (cynomolgus monkey). Nature of the assay: flow cytometry, SEB-activated cynomolgus PBMCs, CD8 T cells, percent of cells bound (isotype control).
Assay [4] has as its target cell membrane-expressed human LAG-3 (human) (UniProt P18627). Nature of the assay: flow cytometry, SEB-activated human PBMCs, CD8 T cells, percent of cells bound (isotype control).

Regarding Isotype hG1 (antibody), the EC50 in assay [1] is 2450 µg/mL; in assay [2], 0.39 µg/mL; in assay [3], 8.66 µg/mL; in assay [4] it was 0.676 µg/mL.

By EC50 is commonly meant the concentration at which the effect is half-maximal. A low value points to greater potency.
